Results published in patent US20120263722A1 (AbbVie / Abbott, published 2012).

T1: CD-19 on the cell surface (human, UniProt P15391 20-556)
T1 construct: whole, on cells
T1 sequence (looked up): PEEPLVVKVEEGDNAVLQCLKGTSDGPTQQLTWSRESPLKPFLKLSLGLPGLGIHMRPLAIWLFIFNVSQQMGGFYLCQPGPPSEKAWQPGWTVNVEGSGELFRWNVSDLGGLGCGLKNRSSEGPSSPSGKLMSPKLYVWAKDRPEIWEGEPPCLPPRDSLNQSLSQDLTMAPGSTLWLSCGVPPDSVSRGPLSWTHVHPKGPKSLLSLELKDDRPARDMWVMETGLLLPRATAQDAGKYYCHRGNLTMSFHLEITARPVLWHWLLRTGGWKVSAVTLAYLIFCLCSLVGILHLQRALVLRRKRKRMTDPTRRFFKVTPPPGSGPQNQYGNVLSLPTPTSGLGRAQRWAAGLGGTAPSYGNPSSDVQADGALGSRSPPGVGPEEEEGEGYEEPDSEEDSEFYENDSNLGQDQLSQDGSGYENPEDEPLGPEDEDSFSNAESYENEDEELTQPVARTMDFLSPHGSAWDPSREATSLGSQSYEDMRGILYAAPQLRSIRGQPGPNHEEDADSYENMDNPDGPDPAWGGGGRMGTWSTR

T2: CD-80 on the cell surface (human, UniProt P33681 35-288)
T2 construct: whole, on cells
T2 sequence (looked up): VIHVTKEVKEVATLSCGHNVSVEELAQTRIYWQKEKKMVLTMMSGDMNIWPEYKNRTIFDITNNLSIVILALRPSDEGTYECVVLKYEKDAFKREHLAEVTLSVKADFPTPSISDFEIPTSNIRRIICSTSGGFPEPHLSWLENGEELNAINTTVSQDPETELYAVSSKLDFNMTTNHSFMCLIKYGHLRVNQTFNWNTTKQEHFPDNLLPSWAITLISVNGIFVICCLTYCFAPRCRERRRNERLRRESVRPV


Columns and labels:
Test in all cases: flow cytometry on cells carrying the target, antibody or DVD-Ig at 2 ug/mL
[1] = biological target: T1, CD-19 on the cell surface
Protocol: (§1) Binding of monoclonal antibodies to the surface of human tumor cell fines was assessed by flow cytometry. For example, stable cell lines overexpressing a cell-surface antigen of interest or human tumor cell lines were harvested from tissue culture flasks and resuspended in phosphate buffered saline (PBS) containing 5% fetal bovine serum (PBS/FBS). Prior to staining, human tumor cells were incubated on ice with (100 μl) human IgG at 5 μg/ml in PBS/FCS. 1-5×10⁵ cells were incubated with antibody or DVD-Ig (2 μg/mL) in PBS/FBS for 30-60 minutes on ice. […] After 30 minutes incubation on ice, cells were washed twice and resuspended in PBS/PBS. Fluorescence was measured using a Becton Dickinson FACSCalibur (Becton Dickinson, San Jose, Calif.).
(§2) The geometric mean is the n root of the multiplication product of n fluorescent signals (a1×a2×a3 . . . an). With log-transformed data the geometric mean is used to normalize the weighting of the data distribution.

[2] = biological target: T2, CD-80 on the cell surface
Protocol: as §1, §2

[3] = biological target: T3, CD-22 on the cell surface (human, UniProt P20273 20-847)
T3 construct: whole, on cells
Protocol: as §1, §2

Row | Binder | N-Terminal VD GEO MEAN (FACS geometric mean) [1] | N-Terminal VD GEO MEAN (FACS geometric mean) [2] | N-Terminal VD GEO MEAN (FACS geometric mean) [3]
1 | AB006 (antibody, V domains shown, Parent antibody; also called AB006VH; AB006VL) VH: QVQLQQSGAELVRPGSSVKISCKASGYAFSSYWMNWVKQRPGQGLEWIGQIWPGDGDTNYNGKFKGKATLTADESSSTAYMQLSSLASEDSAVYFCARRETTTVGRYYYAMDYWGQGTSVTVSS VL: DILLTQTPASLAVSLGQRATISCKASQSVDYDGDSYLNWYQQIPGQPPKLLIYDASNLVSGIPPRFSGSGSGTDFTLNIHPVEKVDAATYHCQQSTEDPWTFGGGTKLEIKR | 1570 | – | –
2 | DVD1881 (bispecific antibody, human IgG1, kappa, Outer domain anti-CD80 (AB007), inner domain anti-IL-6 (AB040); also called DVD1881H; DVD1881L) heavy: not shown light: ESALTQPPSVSGAPGQKVTISCTGSTSNIGGYDLHWYQQLPGTAPKLLIYDINKRPSGISDRFSGSKSGTAASLAITGLQTEDEADYYCQSYDSSLNAQVFGGGTRLTVLGQPKAAPQIVLIQSPAIMSASPGEKVTMTCSASSSVSYMYWYQQKPGSSPRLLIYDTSNLASGVPVRFSGSGSGTSYSLTISRMEAEDAATYYCQQWSGYPYTFGGGTKLEIKRTVAAPSVFIFPPSDEQLKSGTASVVCLLNNFYPREAKVQWKVDNALQSGNSQESVTEQDSKDSTYSLSSTLTLSKADYEKHKVYACEVTHQGLSSPVTKSFNRGEC | – | 134 | –
3 | AB008 (antibody, V domains shown, Parent antibody; also called AB008VH; AB008VL) VH: QVQLVQSGAEVKKPGSSVKVSCKASGYTFTSYWLHWVRQAPGQGLEWIGYINPRNDYTEYNQNFKDKATITADESTNTAYMELSSLRSEDTAFYFCARRDITTFYWGQGTTVTVSS VL: DIQLTQSPSSLSASVGDRVTMSCKSSQSVLYSANHKNYLAWYQQKPGKAPKLLIYWASTRESGVPSRFSGSGSGTDFTFTISSLQPEDIATYYCHQYLSSWTFGGGTKLEIKR | – | – | 256
4 | AB007 (antibody, V domains shown, Parent antibody; also called AB007VH; AB007VL) VH: QVQLQESGPGLVKPSETLSLTCAVSGGSISGGYGWGWIRQPPGKGLEWIGSFYSSSGNTYYNPSLKSQVTISTDTSKNQFSLKLNSMTAADTAVYYCVRDRLFSVVGMVYNNWFDVWGPGVLVTVSS VL: ESALTQPPSVSGAPGQKVTISCTGSTSNIGGYDLHWYQQLPGTAPKLLIYDINKRPSGISDRFSGSKSGTAASLAITGLQTEDEADYYCQSYDSSLNAQVFGGGTRLTVLG | – | 82.5 | –
5 | DVD1883 (bispecific antibody, human IgG1, kappa, Outer domain anti-CD22 (AB008), inner domain anti-IL-6 (AB040); also called DVD1883H; DVD1883L) heavy: not shown light: DIQLTQSPSSLSASVGDRVTMSCKSSQSVLYSANHKNYLAWYQQKPGKAPKLLIYWASTRESGVPSRFSGSGSGTDFTFTISSLQPEDIATYYCHQYLSSWTFGGGTKLEIKRTVAAPQIVLIQSPAIMSASPGEKVTMTCSASSSVSYMYWYQQKPGSSPRLLIYDTSNLASGVPVRFSGSGSGTSYSLTISRMEAEDAATYYCQQWSGYPYTFGGGTKLEIKRTVAAPSVFIFPPSDEQLKSGTASVVCLLNNFYPREAKVQWKVDNALQSGNSQESVTEQDSKDSTYSLSSTLTLSKADYEKHKVYACEVTHQGLSSPVTKSFNRGEC | – | – | 223
6 | DVD1879 (bispecific antibody, human IgG1, kappa, Outer domain anti-CD19 (AB006), inner domain anti-IL-6 (AB040); also called DVD1879H; DVD1879L) heavy: not shown light: DILLTQTPASLAVSLGQRATISCKASQSVDYDGDSYLNWYQQIPGQPPKLLIYDASNLVSGIPPRFSGSGSGTDFTLNIHPVEKVDAATYHCQQSTEDPWTFGGGTKLEIKRTVAAPQIVLIQSPAIMSASPGEKVTMTCSASSSVSYMYWYQQKPGSSPRLLIYDTSNLASGVPVRFSGSGSGTSYSLTISRMEAEDAATYYCQQWSGYPYTFGGGTKLEIKRTVAAPSVFIFPPSDEQLKSGTASVVCLLNNFYPREAKVQWKVDNALQSGNSQESVTEQDSKDSTYSLSSTLTLSKADYEKHKVYACEVTHQGLSSPVTKSFNRGEC | 1930 | – | –
